The record followed here is patent US11230581B2, “Peptides and combination of peptides for use in immunotherapy against ovarian cancer and other cancers” (Immatics Biotechnologies GmbH, priority 2015, dated 2022).

For this test, the target named is HLA-A*02:01 (Homo sapiens, UniProt P04439, D140Y/D185E/D98H/E176V/E277Q/G131W/G231S/I119V/I121R/I166T/I218V/L300P/L318F/N151K/N90K/P208A/P217A/Q86G/Q94H/R138H/R169H/T345S). The test can be described thus: MHC binding assay (UV-ligand exchange, β2m ELISA, peptide exchange yield). The settings on record: binding of HLA-class I restricted peptides to HLA-A*02:01, UV-ligand exchange. A digest of the protocol: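 Yield of stabilized complexes quantified via the β2m light chain in an ELISA (streptavidin capture, 100-fold diluted monomers, HRP anti-β2m 2 ug/ml at 37 °C, TMB, A450). The complexes come from UV-triggered replacement of a photocleavable ligand by the candidate peptide.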
(In general: An ELISA detects its analyte on a solid surface through an enzyme-linked reagent.)

With “308 (SQYSGQLHEV; listed as Homo sapiens) [compound 308]”, the “Peptide exchange (MHC class I binding score, peptide exchange yield)” value (from here on “Peptide exchange”) was ““+++” (≥50 = +++)”.

For the substance “309 (GLFDGVPTTA; listed as Homo sapiens) [compound 309]”, the “Peptide exchange” value was ““+++” (≥50 = +++)”.

With “310 (FLVDTPLARA; listed as Homo sapiens) [compound 310]”, the “Peptide exchange” value was ““++++” (≥75% = ++++)”.

In the case of “311 (RLYTGMHTV; listed as Homo sapiens) [compound 311]”, the “Peptide exchange” value was ““+++” (≥50 = +++)”.

In the case of “312 (IISDLTIAL; listed as Homo sapiens) [compound 312]”, the “Peptide exchange” value is reported as ““+++” (≥50 = +++)”.

Turning to “313 (VLFDDELLMV; listed as Homo sapiens) [compound 313]”, the “Peptide exchange” value is reported as ““+++” (≥50 = +++)”.

Take “314 (ALIAEGIALV; listed as Homo sapiens) [compound 314]”: the “Peptide exchange” value is recorded as ““+++” (≥50 = +++)”.

Regarding “315 (YLQDVVEQA; listed as Homo sapiens) [compound 315]”, the “Peptide exchange” value is ““+++” (≥50 = +++)”.

As to “316 (ILLERLWYV; listed as Homo sapiens) [compound 316]”, the “Peptide exchange” value is ““+++” (≥50 = +++)”.

Turning to “317 (SLAALVVHV; listed as Homo sapiens) [compound 317]”, the “Peptide exchange” value is listed as ““+++” (≥50 = +++)”.

As for “318 (GLINTGVLSV; listed as Homo sapiens) [compound 318]”, the “Peptide exchange” value is ““++” (≥20% = ++)”.

On to “319 (SLEPQIQPV; listed as Homo sapiens) [compound 319]”, for which the “Peptide exchange” value is ““++” (≥20% = ++)”.

Regarding “320 (KMFEFVEPLL; listed as Homo sapiens) [compound 320]”, the “Peptide exchange” value is given as ““++++” (≥75% = ++++)”.

Regarding “321 (GLFEDVTQPGILL; listed as Homo sapiens) [compound 321]”, the “Peptide exchange” value is given as ““++++” (≥75% = ++++)”.

Regarding “322 (TLMTSLPAL; listed as Homo sapiens) [compound 322]”, the “Peptide exchange” value is on record as ““+++” (≥50 = +++)”.

For the substance “324 (FLYDEIEAEV; listed as Homo sapiens) [compound 324]”, the “Peptide exchange” value is ““+++” (≥50 = +++)”.

“325 (FIMPATVADATAV; listed as Homo sapiens) [compound 325]”: the “Peptide exchange” value was ““+++” (≥50 = +++)”.

Take “326 (FLPEALDFV; listed as Homo sapiens) [compound 326]”: the “Peptide exchange” value is given as ““+++” (≥50 = +++)”.

As to “327 (GLAPFTEGISFV; listed as Homo sapiens) [compound 327]”, the “Peptide exchange” value is ““+++” (≥50 = +++)”.

For the substance “328 (ALNDQVFEI; listed as Homo sapiens) [compound 328]”, the “Peptide exchange” value is listed as ““+++” (≥50 = +++)”.

With “329 (FLVTLNNVEV; listed as Homo sapiens) [compound 329]”, the “Peptide exchange” value was ““++++” (≥75% = ++++)”.

In the case of “330 (QLALKVEGV; listed as Homo sapiens) [compound 330]”, the “Peptide exchange” value is recorded as ““+++” (≥50 = +++)”.

As for “331 (KVDTVWVNV; listed as Homo sapiens) [compound 331]”, the “Peptide exchange” value is given as ““+++” (≥50 = +++)”.

For “332 (YLISELEAA; listed as Homo sapiens) [compound 332]”, the “Peptide exchange” value is recorded as ““+++” (≥50 = +++)”.

For the substance “333 (FLPDANSSV; listed as Homo sapiens) [compound 333]”, the “Peptide exchange” value is on record as ““++” (≥20% = ++)”.

Turning to “334 (TLTKVLVAL; listed as Homo sapiens) [compound 334]”, the “Peptide exchange” value is recorded as ““+++” (≥50 = +++)”.

Take “335 (YSLSSVVTV; listed as Homo sapiens) [compound 335]”: the “Peptide exchange” value is ““+++” (≥50 = +++)”.

“336 (ILLTAIVQV; listed as Homo sapiens) [compound 336]”: the “Peptide exchange” value was ““+++” (≥50 = +++)”.

“337 (HLLSELEAAPYL; listed as Homo sapiens) [compound 337]”: the “Peptide exchange” value is recorded as ““++++” (≥75% = ++++)”.

On to “339 (GLWEIENNPTVKA; listed as Homo sapiens) [compound 339]”, for which the “Peptide exchange” value is reported as ““++++” (≥75% = ++++)”.

For the substance “340 (ALLSMTFPL; listed as Homo sapiens) [compound 340]”, the “Peptide exchange” value is listed as ““++++” (≥75% = ++++)”.

Regarding “341 (SQIALNEKLVNL; listed as Homo sapiens) [compound 341]”, the “Peptide exchange” value is ““+++” (≥50 = +++)”.

Take “342 (HIYDKVMTV; listed as Homo sapiens) [compound 342]”: the “Peptide exchange” value is given as ““+++” (≥50 = +++)”.

As for “343 (SLLEVNEESTV; listed as Homo sapiens) [compound 343]”, the “Peptide exchange” value is on record as ““+++” (≥50 = +++)”.

On to “344 (YLQDQHLLLTV; listed as Homo sapiens) [compound 344]”, for which the “Peptide exchange” value was ““+++” (≥50 = +++)”.

Take “345 (VIWKALIHL; listed as Homo sapiens) [compound 345]”: the “Peptide exchange” value was ““+++” (≥50 = +++)”.

Take “346 (LLDSKVPSV; listed as Homo sapiens) [compound 346]”: the “Peptide exchange” value is on record as ““+++” (≥50 = +++)”.

In the case of “347 (SLFKHDPAAWEA; listed as Homo sapiens) [compound 347]”, the “Peptide exchange” value is recorded as ““++++” (≥75% = ++++)”.

In the case of “348 (ILLDVKTRL; listed as Homo sapiens) [compound 348]”, the “Peptide exchange” value is ““++++” (≥75% = ++++)”.

As to “349 (SLTEYLQNV; listed as Homo sapiens) [compound 349]”, the “Peptide exchange” value is ““++++” (≥75% = ++++)”.

With “350 (ALLDVTHSELTV; listed as Homo sapiens) [compound 350]”, the “Peptide exchange” value is on record as ““+++” (≥50 = +++)”.

“351 (SLIPNLRNV; listed as Homo sapiens) [compound 351]”: the “Peptide exchange” value is ““+++” (≥50 = +++)”.

On to “352 (SLLELLHIYV; listed as Homo sapiens) [compound 352]”, for which the “Peptide exchange” value was ““+++” (≥50 = +++)”.

Consider “353 (YLFEMDSSL; listed as Homo sapiens) [compound 353]”, for which the “Peptide exchange” value was ““++” (≥20% = ++)”.

Turning to “354 (LILEGVDTV; listed as Homo sapiens) [compound 354]”, the “Peptide exchange” value is reported as ““++” (≥20% = ++)”.

Consider “355 (SIQQSIERLLV; listed as Homo sapiens) [compound 355]”, for which the “Peptide exchange” value is on record as ““++” (≥20% = ++)”.

On to “356 (KLLGKLPEL; listed as Homo sapiens) [compound 356]”, for which the “Peptide exchange” value is listed as ““+++” (≥50 = +++)”.

As to “357 (SMHDLVLQV; listed as Homo sapiens) [compound 357]”, the “Peptide exchange” value is reported as ““+++” (≥50 = +++)”.

As to “358 (ALDEYTSEL; listed as Homo sapiens) [compound 358]”, the “Peptide exchange” value was ““++++” (≥75% = ++++)”.

In the case of “359 (YLLPESVDL; listed as Homo sapiens) [compound 359]”, the “Peptide exchange” value is listed as ““+++” (≥50 = +++)”.

Turning to “361 (ALYELEGTTV; listed as Homo sapiens) [compound 361]”, the “Peptide exchange” value is given as ““+++” (≥50 = +++)”.

In the case of “362 (TLYGLSVLL; listed as Homo sapiens) [compound 362]”, the “Peptide exchange” value was ““+++” (≥50 = +++)”.

Regarding “363 (KVLDVSDLESV; listed as Homo sapiens) [compound 363]”, the “Peptide exchange” value is listed as ““++” (≥20% = ++)”.

Regarding “364 (LLQNEQFEL; listed as Homo sapiens) [compound 364]”, the “Peptide exchange” value is recorded as ““+++” (≥50 = +++)”.

Consider “365 (YVIDQGETDVYV; listed as Homo sapiens) [compound 365]”, for which the “Peptide exchange” value is ““+++” (≥50 = +++)”.

Regarding “366 (RLLDMGETDLML; listed as Homo sapiens) [compound 366]”, the “Peptide exchange” value is recorded as ““+++” (≥50 = +++)”.

For “367 (SLQNHNHQL; listed as Homo sapiens) [compound 367]”, the “Peptide exchange” value is recorded as ““+++” (≥50 = +++)”.

On to “369 (GLFPEHLIDV; listed as Homo sapiens) [compound 369]”, for which the “Peptide exchange” value is reported as ““+++” (≥50 = +++)”.

In the case of “370 (SLLQDLVSV; listed as Homo sapiens) [compound 370]”, the “Peptide exchange” value is listed as ““+++” (≥50 = +++)”.

Take “371 (FLQAHLHTA; listed as Homo sapiens) [compound 371]”: the “Peptide exchange” value is recorded as ““++++” (≥75% = ++++)”.

Take “372 (TMLLNIPLV; listed as Homo sapiens) [compound 372]”: the “Peptide exchange” value is recorded as ““++” (≥20% = ++)”.
